# Measurements published in patent US6964763.
# Molecular target: Recombinant baculovirus-expressed HIV-1 gp120 derived from the LAV isolate (HIV-1 isolate LAV (LAI)), P03377
# Assay: competition: 125I-CD4 on immobilized gp120, 10-fold molar excess of peptide; isolate (MN or LAI) not stated
binder,measurement,value
CSVTCG (modifications not checked) [CSVTCG peptide derived from TSP1 properdin-like Type 1 repeat],% inhibition,53%
